B1: probe A2 (PADT-A 281-370) (dsDNA)
DNA 1: ACAACAGACTGGTAAGGCACACGTGCTTCCACGAGATCCACTAACTTGCGCGGGTGTTTACACACCTAACCACTCCGGAGCTTCCATGCT
DNA 2: AGCATGGAAGCTCCGGAGTGGTTAGGTGTGTAAACACCCGCGCAAGTTAGTGGATCTCGTGGAAGCACGTGTGCCTTACCAGTCTGTTGT
B2: probe A1 (PADT-A 225-329) (dsDNA)
DNA 1: TAACTTGCGCGGGTGTTTACACACCTAACCACTCCGGAGCTTCCATGCTTCATCCACGAGTCAGAGGGGCCTTTCCTCCAACCACCCTAGATCAGCATGAGCTAT
DNA 2: ATAGCTCATGCTGATCTAGGGTGGTTGGAGGAAAGGCCCCTCTGACTCGTGGATGAAGCATGGAAGCTCCGGAGTGGTTAGGTGTGTAAACACCCGCGCAAGTTA
B3: probe D2 (PADT-D 192-318) (dsDNA)
DNA 1: GCTGGTGAGAAGGGCCAAACCAAAAAAAAACCAAACGAAATCACAGCGTACGATCTAACTAACCGTGTTGAATAGTCCCGTGACGTAGCCGCCGTAATGTGCAACAACCCACCATGGGATGGAGCAG
DNA 2: CTGCTCCATCCCATGGTGGGTTGTTGCACATTACGGCGGCTACGTCACGGGACTATTCAACACGGTTAGTTAGATCGTACGCTGTGATTTCGTTTGGTTTTTTTTTGGTTTGGCCCTTCTCACCAGC

What was measured:
PpMYB8 [1] = target: T1, PpMYB8 (Pinus pinaster, UniProt D7GLD4 1-534); assay: EMSA; shift reduced by unlabeled probe; EMSA buffer, salt, pH and temperature not given in material (electrophoresis as in Rueda-López et al. 2008); settings: protein: recombinant; label: 5'-biotin
PpMYB8 [2] = target: T1, PpMYB8; assay: EMSA; EMSA buffer, salt, pH and temperature not given in material (electrophoresis as in Rueda-López et al. 2008); settings: protein: recombinant; label: 5'-biotin

T1 sequence (D7GLD4 entry or part of it): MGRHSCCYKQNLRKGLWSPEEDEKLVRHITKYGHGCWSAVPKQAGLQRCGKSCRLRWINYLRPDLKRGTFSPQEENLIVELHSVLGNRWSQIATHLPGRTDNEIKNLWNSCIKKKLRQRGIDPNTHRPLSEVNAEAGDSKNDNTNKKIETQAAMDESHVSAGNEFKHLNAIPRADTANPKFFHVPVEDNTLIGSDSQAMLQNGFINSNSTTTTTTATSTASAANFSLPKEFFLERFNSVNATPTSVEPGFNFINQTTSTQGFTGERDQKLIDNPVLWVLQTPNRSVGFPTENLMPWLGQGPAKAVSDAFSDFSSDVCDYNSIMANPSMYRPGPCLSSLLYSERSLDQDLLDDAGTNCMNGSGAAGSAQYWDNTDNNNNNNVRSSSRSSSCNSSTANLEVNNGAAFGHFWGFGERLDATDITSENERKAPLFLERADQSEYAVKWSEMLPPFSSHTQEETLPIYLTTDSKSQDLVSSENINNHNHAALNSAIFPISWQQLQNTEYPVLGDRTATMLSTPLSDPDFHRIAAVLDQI

| Binder | binding result (PpMYB8 [1]) | binding result (PpMYB8 [2]) |
| --- | --- | --- |
| B1 | binds |  |
| B2 |  | no binding |
| B3 |  | no binding |
